Five molecules from article PMC8093518, “PprA Protein Inhibits DNA Strand Exchange and ATP Hydrolysis of Deinococcus RecA and Regulates the Recombination in Gamma-Irradiated Cells” (Frontiers in Cell and Developmental Biology, 2021) can be followed below.

Data set [1] has as its target T1, PprA (Deinococcus radiodurans R1 (ATCC 13939), UniProt O32504 1-300).
T1 sequence: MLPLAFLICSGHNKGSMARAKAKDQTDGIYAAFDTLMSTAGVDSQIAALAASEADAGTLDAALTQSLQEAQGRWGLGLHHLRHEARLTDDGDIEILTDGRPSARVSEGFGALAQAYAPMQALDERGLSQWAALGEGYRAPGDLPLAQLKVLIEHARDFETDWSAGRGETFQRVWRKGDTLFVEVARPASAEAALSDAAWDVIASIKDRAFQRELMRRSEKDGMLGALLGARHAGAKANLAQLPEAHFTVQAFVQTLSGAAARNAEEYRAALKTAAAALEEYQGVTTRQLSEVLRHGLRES
The data set is described as follows: EMSA; PprA 2 ug; EMSA: 0.2 pmol 32P probe in 10 ul, 10 mM Tris-HCl pH 7.5, 50 mM NaCl, 1 mM DTT, 10 min, 37 C; 12.5% native PAGE. As to conditions: protein: recombinant; tags: His-tag removed with Factor Xa (pET28a); label: 32P (polynucleotide kinase, 5' end).

The target of the next data set is T2, DrRecA (Deinococcus radiodurans R1 (ATCC 13939), UniProt P42443 1-363).
T2 sequence: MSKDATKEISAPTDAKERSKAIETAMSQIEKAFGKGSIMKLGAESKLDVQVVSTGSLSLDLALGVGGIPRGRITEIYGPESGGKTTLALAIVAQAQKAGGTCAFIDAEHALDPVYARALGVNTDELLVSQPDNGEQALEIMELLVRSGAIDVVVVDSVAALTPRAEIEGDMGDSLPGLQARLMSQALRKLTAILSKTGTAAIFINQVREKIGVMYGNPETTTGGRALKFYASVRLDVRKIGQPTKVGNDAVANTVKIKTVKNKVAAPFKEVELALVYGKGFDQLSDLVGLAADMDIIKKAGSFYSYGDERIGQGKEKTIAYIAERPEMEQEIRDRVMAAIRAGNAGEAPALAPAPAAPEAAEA
Nature of the data set: EMSA; no PprA; DrRecA 0.5-2 ug; EMSA: 0.2 pmol 32P probe in 10 ul, 10 mM Tris-HCl pH 7.5, 50 mM NaCl, 1 mM DTT, 10 min, 37 C; 12.5% native PAGE. As to conditions: protein: recombinant, tags: His-tag removed with Factor Xa (pET28a), label: 32P (polynucleotide kinase, 5' end).

The target of data set [2] is T1, PprA. The data set is described as follows: EMSA; PprA 2 ug; band distinct from DrRecA-DNA; EMSA: 0.2 pmol 32P probe in 10 ul, 10 mM Tris-HCl pH 7.5, 50 mM NaCl, 1 mM DTT, 10 min, 37 C; 12.5% native PAGE. As to conditions: protein: recombinant; tags: His-tag removed with Factor Xa (pET28a); label: 32P (polynucleotide kinase, 5' end); blunt.
Data set [3] deals with T3, Recombinant DrRecA, purified (D. radiodurans, UniProt P42443 1-363).
T3 construct: RecA of Deinococcus radiodurans, from plasmid pETrecA constructed earlier (Rajpurohit et al., 2016); His tag removed with Factor-Xa; also called pETrecA; source: E. coli BL21(DE3) pLysS, purified (Ni-chelating Sepharose, Q-sepharose, Heparin, Superdex-200)
T3 sequence (looked up): T2 sequence
Nature of the data set: cross-linking; both proteins (approx. 5 μg each) mixed in HEPES buffer pH 7.6 for 10 min, 0.5% glutaraldehyde for 10 min, SDS-PAGE; with or without 1 kb dsDNA, DNase treatment. As to conditions: both partners purified.

Numbering of substitutions follows the chain as printed. Names and notes keep the numbering of the source.

B1: Oligo40-F 40-mer ssDNA (ssDNA)
DNA: TAATACAAAATAAGTAAATGAATAAACAGAGAAAATAAAG
As for B1, the binding result with PprA [1] is recorded as “no binding”; with DrRecA, “binds”.

B2: Oligo40-F/Oligo40-R 40-mer dsDNA (dsDNA)
DNA 1: B1 DNA
DNA 2: CTTTATTTTCTCTGTTTATTCATTTACTTATTTTGTATTA
For B2, the binding result with PprA [2] and with DrRecA (blunt) was “binds” each time.

B3: Recombinant PprA, wild type, purified (natural protein, D. radiodurans, UniProt O32504 1-300, looked up)
chain: T1 sequence
notes: PprA of Deinococcus radiodurans, from plasmid pETpprA constructed earlier (Rajpurohit and Misra, 2013); His tag removed with Factor-Xa; also called PprA^wt; pETpprA; source: E. coli BL21(DE3) pLysS, purified (Ni-chelating Sepharose, Q-sepharose, Heparin, Superdex-200)
As for B3, the binding result in data set [3] is listed as “binds”.

B4: PprA R212A mutant (natural protein, D. radiodurans, UniProt O32504 1-300, looked up)
chain: T1 sequence with R212A
notes: PprA of Deinococcus radiodurans with R212A, made with a site-directed mutagenesis kit; also called oligomer mutant
In the case of B4, the binding result in data set [3] is given as “binds”.

B5: PprA R166A mutant (natural protein, D. radiodurans, UniProt O32504 1-300, looked up)
chain: T1 sequence with R166A
notes: PprA of Deinococcus radiodurans with R166A, made with a site-directed mutagenesis kit
Consider B5, for which the binding result in data set [3] is on record as “binds”.
